Measurements taken from patent US9959384 (BIONIZ, dated 2018).
No end group written: not given here.

Target: T1, human common gamma chain (γc, CD132) (human, UniProt P31785 23-369)
T1 sequence (looked up): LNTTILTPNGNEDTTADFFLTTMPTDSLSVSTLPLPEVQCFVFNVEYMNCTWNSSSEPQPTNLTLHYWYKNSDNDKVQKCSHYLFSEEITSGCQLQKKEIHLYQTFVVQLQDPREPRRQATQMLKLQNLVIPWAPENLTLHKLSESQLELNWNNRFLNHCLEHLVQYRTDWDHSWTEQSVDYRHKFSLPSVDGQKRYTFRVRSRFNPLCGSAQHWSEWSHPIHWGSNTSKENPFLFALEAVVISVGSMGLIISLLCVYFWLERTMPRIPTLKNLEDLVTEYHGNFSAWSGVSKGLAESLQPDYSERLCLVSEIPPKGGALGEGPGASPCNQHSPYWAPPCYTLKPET
Test: cell-based or functional assay

## IKEFLQSFIHIVQSIINT (not fully specified) [BNZ132-1 peptide]
  IC50 of inhibition of IL-2/IL-15-induced proliferation of ex vivo human T-lymphocytes (IL-2 + IL-15, 0.1 nM each): 150 nM
